The target in test [1] is T1, CD19 on RAJI (CD19+) cells (UniProt P15391 20-556, limits assumed).
T1 construct: whole, on cells
T1 sequence (looked up): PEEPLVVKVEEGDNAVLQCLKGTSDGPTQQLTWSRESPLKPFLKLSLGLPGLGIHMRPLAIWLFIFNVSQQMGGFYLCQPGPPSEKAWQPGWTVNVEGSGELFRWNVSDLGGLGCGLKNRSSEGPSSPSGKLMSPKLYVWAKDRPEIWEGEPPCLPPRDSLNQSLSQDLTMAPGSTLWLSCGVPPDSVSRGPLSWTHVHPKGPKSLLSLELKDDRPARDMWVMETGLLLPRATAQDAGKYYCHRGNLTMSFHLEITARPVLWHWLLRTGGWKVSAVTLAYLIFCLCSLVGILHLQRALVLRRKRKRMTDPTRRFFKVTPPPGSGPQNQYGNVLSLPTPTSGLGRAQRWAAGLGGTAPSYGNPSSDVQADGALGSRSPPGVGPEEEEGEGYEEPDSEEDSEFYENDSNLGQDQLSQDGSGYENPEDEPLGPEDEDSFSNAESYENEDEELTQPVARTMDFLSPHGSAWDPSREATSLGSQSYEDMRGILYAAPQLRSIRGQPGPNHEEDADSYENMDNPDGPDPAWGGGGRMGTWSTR
The experiment in a line: live cell ELISA on RAJI (CD19+) cells; OD450 grade at 1/60 dilution. On the procedure: (§1) These variants were tested for their ability to bind to cells expressing the target antigen using a live cell ELISA binding assay using filter plates and wash steps carried out using a vacuum manifold (method developed by Anne Marcil at the National Research Council, Montreal, Canada). The method was carried out as follows. Cells were maintained in exponential growth phase and then washed, counted and distributed at 10E5 cells per well in 50% medium, 50% blocking buffer. Dilutions of variants in blocking buffer were added to the cells and incubated for 1 hour at 4° C. After collection and four washes in medium, an HRP-conjugated goat anti-human IgG was added to cells which were incubated for 1 hour at 4° C. After collection and four washes in medium and 3 washes in PBS, TMB substrate was added to cells which were incubated for 25 minutes at room temperature. The reaction was stopped by addition of H₂SO4 and OD read at 450 nm. The ELISA results are depicted in Tables 17 and 18. A, B, and C refer to the ratio of Chain A to Chain B used in expression of the variant: Ratio A=Chain A/Chain B=1:1 A/B=50%/50%; Ratio B=Chain A/Chain B=2:1 A/B=66%/34%; Ratio C=Chain A/Chain B=1:2 A/B=34%/66%.
A general note: ELISA stands for enzyme-linked immunosorbent assay.

The target of test [2] is T2, CD3 on HBP-ALL (CD3+) cells (UniProt P07766 23-207).
T2 construct: whole, on cells; CD3 is a multi-chain complex
Briefly: live cell ELISA on HBP-ALL (CD3+) cells; OD450 grade at 1/60 dilution. The method, then:
as §1

For test [3], the target named is T2, CD3 on HBP-ALL (CD3+) cells. Briefly: live cell ELISA on HBP-ALL (CD3+) cells. On the procedure: as §1

Where a chain is given by its changes, count along the chain named.

B1: scMAB_LCI_CD3xCD19_GS15-GS24_GS15-GS24, variant 1841 (bispecific antibody, human IgG1, kappa)
chain 1: QVQLVQSGGGVVQPGRSLRLSCKASGYTFTRYTMHWVRQAPGKGLEWIGYINPSRGYTNYNQKVKDRFTISRDNSKNTAFLQMDSLRPEDTGVYFCARYYDDHYCLDYWGQGTPVTVSSGGGGSGGGGSGGGGSDIQMTQSPSSLSASVGDRVTITCSASSSVSYMNWYQQTPGKAPKRWIYDTSKLASGVPSRFSGSGSGTDYTFTISSLQPEDIATYYCQQWSSNPFTFGQGTKLQITRTVAAPSVFIFPPSDEQLKSGTASVVCLLNNFYPREAKVQWKVDNALQSGNSQESVTEQDSKDSTYSLSSTLTLSKADYEKHKVYACEVTHQGLSSPVTKSFNRGECGGGGSGGGGSGGGGSGGGGSGGGGSTKGPSVFPLAPSSKSTSGGTAALGCLVKDYFPEPVTVSWNSGALTSGVHTFPAVLQSSGLYSLSSVVTVPSSSLGTQTYICNVNHKPSNTKVDKKVEPKSCDKTHTCPPCPAPELLGGPSVFLFPPKPKDTLMISRTPEVTCVVVDVSHEDPEVKFNWYVDGVEVHNAKTKPREEQYNSTYRVVSVLTVLHQDWLNGKEYKCKVSNKALPAPIEKTISKAKGQPREPQVYVYPPSRDELTKNQVSLTCLVKGFYPSDIAVEWESNGQPENNYKTTPPVLDSDGSFALVSKLTVDKSRWQQGNVFSCSVMHEALHNHYTQKSLSLSPGK
chain 2: not shown
notes: Heterodimeric IgG1 Fc; the CH3 mutations are already in the entries; also called 1841 B
Turning to B1, the OD450 in test [1] is above 2 od; in test [2], 1 to 2 od.

B2: scMAB_LCI_CD3xCD19_GS15-GS24_GS15-GS24_SS, variant 1843 (bispecific antibody, human IgG1, kappa)
chain 1: B1 chain 1 with G44C, Q233C
chain 2: not shown
notes: Heterodimeric IgG1 Fc; the CH3 mutations are already in the entries; also called 1843 B
As for B2, the OD450 is above 2 od in test [1] and 1 to 2 od in test [2].

B3: scMAB_LL_CD3xCD19_HH41_GSE34, variant 1846 (bispecific antibody, human IgG1, kappa)
chain 1: DIQMTQSPSSLSASVGDRVTITCSASSSVSYMNWYQQTPGKAPKRWIYDTSKLASGVPSRFSGSGSGTDYTFTISSLQPEDIATYYCQQWSSNPFTFGQGTKLQITRTVAAPSVFIFPPSDEQLKSGTASVVCLLNNFYPREAKVQWKVDNALQSGNSQESVTEQDSKDSTYSLSSTLTLSKADYEKHKVYACEVTHQGLSSPVTKSFNRGECGGSGGGSGSSADDAKKDAAKKDDAKKDDAKKDGGGSGGGSGQVQLVQSGGGVVQPGRSLRLSCKASGYTFTRYTMHWVRQAPGKGLEWIGYINPSRGYTNYNQKVKDRFTISRDNSKNTAFLQMDSLRPEDTGVYFCARYYDDHYCLDYWGQGTPVTVSSASTKGPSVFPLAPSSKSTSGGTAALGCLVKDYFPEPVTVSWNSGALTSGVHTFPAVLQSSGLYSLSSVVTVPSSSLGTQTYICNVNHKPSNTKVDKKVEPKSCDKTHTCPPCPAPELLGGPSVFLFPPKPKDTLMISRTPEVTCVVVDVSHEDPEVKFNWYVDGVEVHNAKTKPREEQYNSTYRVVSVLTVLHQDWLNGKEYKCKVSNKALPAPIEKTISKAKGQPREPQVYVYPPSRDELTKNQVSLTCLVKGFYPSDIAVEWESNGQPENNYKTTPPVLDSDGSFALVSKLTVDKSRWQQGNVFSCSVMHEALHNHYTQKSLSLSPGK
chain 2: not shown
notes: A, B and C are the chain A : chain B DNA ratios used in expression (1:1, 2:1, 1:2); also called 1846 A; 1846 B
As for B3, the OD450 was above 2 od in test [1] and 1 to 2 od in test [2].

B4: scMAB_LL_CD3xCD19_HH41_HH41, variant 1844 (bispecific antibody, human IgG1, kappa)
chain 1: B3 chain 1
chain 2: not shown
notes: B and C are the chain A : chain B DNA ratios used in expression (2:1 and 1:2); also called 1844 B; 1844 C
Turning to B4, the OD450 in test [1] is above 2 od; in test [2], 1 to 2 od.

B5: scMAB_LCI_CD3xCD19_GS20-GS24_GS20-GS24, variant 1840 (bispecific antibody)
chain 1: QVQLVQSGGGVVQPGRSLRLSCKASGYTFTRYTMHWVRQAPGKGLEWIGYINPSRGYTNYNQKVKDRFTISRDNSKNTAFLQMDSLRPEDTGVYFCARYYDDHYCLDYWGQGTPVTVSSGGGGSGGGGSGGGGSGGGGSDIQMTQSPSSLSASVGDRVTITCSASSSVSYMNWYQQTPGKAPKRWIYDTSKLASGVPSRFSGSGSGTDYTFTISSLQPEDIATYYCQQWSSNPFTFGQGTKLQITRTVAAPSVFIFPPSDEQLKSGTASVVCLLNNFYPREAKVQWKVDNALQSGNSQESVTEQDSKDSTYSLSSTLTLSKADYEKHKVYACEVTHQGLSSPVTKSFNRGECGGGGSGGGGSGGGGSGGGGSGGGGSTKGPSVFPLAPSSKSTSGGTAALGCLVKDYFPEPVTVSWNSGALTSGVHTFPAVLQSSGLYSLSSVVTVPSSSLGTQTYICNVNHKPSNTKVDKKVEPKSCDKTHTCPPCPAPELLGGPSVFLFPPKPKDTLMISRTPEVTCVVVDVSHEDPEVKFNWYVDGVEVHNAKTKPREEQYNSTYRVVSVLTVLHQDWLNGKEYKCKVSNKALPAPIEKTISKAKGQPREPQVYVYPPSRDELTKNQVSLTCLVKGFYPSDIAVEWESNGQPENNYKTTPPVLDSDGSFALVSKLTVDKSRWQQGNVFSCSVMHEALHNHYTQKSLSLSPGK
chain 2: not shown
notes: also called 1840 A
Regarding B5, the OD450 in test [1] was above 2 od; in test [2] it was 1 to 2 od.

B6: scMAB_LCI_CD3xCD19_GS20-GS24_GS20-GS24_SS, variant 1842 (bispecific antibody, human IgG1, kappa)
chain 1: B5 chain 1 with G44C, Q238C
chain 2: not shown
notes: Heterodimeric IgG1 Fc; the CH3 mutations are already in the entries; also called 1842 B
As for B6, the results for the OD450 in test [1] and in test [2] were above 2 od and 1 to 2 od, respectively.

B7: MOR208-CD19 FSA, variant 2176 (antibody, V domains shown)
VH: EVQLVESGGGLVKPGGSLKLSCAASGYTFTSYVMHWVRQAPGKGLEWIGYINPYNDGTKYNEKFQGRVTISSDKSISTAYMELSSLRSEDTAMYYCARGTYYYGTRVFDYWGQGTLVTVSS
VL: DIVMTQSPATLSLSPGERATLSCRSSKSLQNVNGNTYLYWFQQKPGQSPQLLIYRMSNLNSGVPDRFSGSGSGTEFTLTISSLEPEDFAVYYCMQHLEYPITFGAGTKLEIK
notes: Control; also called 2176 A; anti-CD19 warhead from MOR208
For B7, the binding result in test [3] is on record as “no binding (tested: OD450 = or < negative control 1041)”.

B8: scMAB_LL_CD3xCD19_GSE34_GSE34, variant 1845 (bispecific antibody)
chain 1: DIQMTQSPSSLSASVGDRVTITCSASSSVSYMNWYQQTPGKAPKRWIYDTSKLASGVPSRFSGSGSGTDYTFTISSLQPEDIATYYCQQWSSNPFTFGQGTKLQITRTVAAPSVFIFPPSDEQLKSGTASVVCLLNNFYPREAKVQWKVDNALQSGNSQESVTEQDSKDSTYSLSSTLTLSKADYEKHKVYACEVTHQGLSSPVTKSFNRGECSGGGSGGGSEGGGSEGGGSEGGGSEGGGSGGGSGQVQLVQSGGGVVQPGRSLRLSCKASGYTFTRYTMHWVRQAPGKGLEWIGYINPSRGYTNYNQKVKDRFTISRDNSKNTAFLQMDSLRPEDTGVYFCARYYDDHYCLDYWGQGTPVTVSSASTKGPSVFPLAPSSKSTSGGTAALGCLVKDYFPEPVTVSWNSGALTSGVHTFPAVLQSSGLYSLSSVVTVPSSSLGTQTYICNVNHKPSNTKVDKKVEPKSCDKTHTCPPCPAPELLGGPSVFLFPPKPKDTLMISRTPEVTCVVVDVSHEDPEVKFNWYVDGVEVHNAKTKPREEQYNSTYRVVSVLTVLHQDWLNGKEYKCKVSNKALPAPIEKTISKAKGQPREPQVYVYPPSRDELTKNQVSLTCLVKGFYPSDIAVEWESNGQPENNYKTTPPVLDSDGSFALVSKLTVDKSRWQQGNVFSCSVMHEALHNHYTQKSLSLSPGK
chain 2: not shown
notes: A, B and C are the chain A : chain B DNA ratios used in expression (1:1, 2:1, 1:2); also called 1845 A; 1845 B
Regarding B8, the OD450 in test [1] was above 2 od; in test [2] it was 1 to 2 od.
